Targets include N115Q-GLP1R-V5 (human) (UniProt P43220); N63Q-GLP1R-V5 (human) (UniProt P43220); N82Q-GLP1R-V5 (human) (UniProt P43220).
The next experiment deals with T1, N62Q-GIPR-V5 (human) (UniProt P48546).
T1 sequence: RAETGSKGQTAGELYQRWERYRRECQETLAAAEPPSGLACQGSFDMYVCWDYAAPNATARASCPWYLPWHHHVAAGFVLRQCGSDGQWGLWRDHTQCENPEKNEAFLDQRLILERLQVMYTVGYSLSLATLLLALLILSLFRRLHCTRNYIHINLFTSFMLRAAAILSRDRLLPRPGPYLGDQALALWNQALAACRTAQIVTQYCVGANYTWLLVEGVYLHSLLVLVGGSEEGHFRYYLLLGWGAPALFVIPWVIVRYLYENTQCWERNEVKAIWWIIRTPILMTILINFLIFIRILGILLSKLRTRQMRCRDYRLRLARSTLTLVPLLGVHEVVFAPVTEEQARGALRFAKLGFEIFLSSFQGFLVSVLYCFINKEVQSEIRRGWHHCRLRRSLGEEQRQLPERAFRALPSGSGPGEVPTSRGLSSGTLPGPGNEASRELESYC

Another experiment has as its target T2, N77Q-GIPR-V5 (human) (UniProt P48546).
T2 sequence: T1 sequence with Q41N, N56Q

Experiment [1] has as its target T3, human GIPR with C-terminal V5 epitope (GIPR-V5) (human) (UniProt P48546).
T3 sequence: T1 sequence with Q41N

Experiment [2] deals with T3, human GIPR with C-terminal V5 epitope (GIPR-V5) (human). The source holds these as a separate data set.
Experiment [3] has as its target N63,82,115Q-GLP-1R-V5 (human) (UniProt P43220).
For experiment [4], the target named is N63,82Q-GLP-1R-V5 (human) (UniProt P43220).
Experiment [5] deals with human GLP1R with C-terminal V5 epitope (GLP1R-V5) (human) (UniProt P43220).

Residue numbers refer to the chain shown, from its start.

Consider “GIP peptide (Glucose-dependent Insulinotropic Polypeptide) (from UniProt P09681 52-93) (ligand)”, for which the EC50 of GIP for cAMP production (LANCE TR-FRET, 30 min stimulation) in CHO cells expressing the receptor was found to be 100 pM with N62Q-GIPR-V5 (human), 3.1 nM with N77Q-GIPR-V5 (human) and 82 pM in experiment [1]. The substance further registered an EC50 of GIP for cAMP production (LANCE TR-FRET) in CHO cells expressing the receptor; series of Figure 8A in experiment [2] of 34 pM.
As for GLP-1 7–36 amide (ligand), the EC50 of GLP-1 for cAMP production (LANCE TR-FRET, 30 min stimulation) in CHO cells expressing the receptor is 720 pM in the experiment with N115Q-GLP1R-V5 (human); 2.7 nM in [3]; 580 pM in experiment [4]; 630 pM with N63Q-GLP1R-V5 (human); 710 pM with N82Q-GLP1R-V5 (human). Further, in experiment [5], the EC50 of GLP-1 for cAMP production (LANCE TR-FRET, 30 min stimulation) in CHO cells expressing the receptor; series with the double and triple mutants turned out to be 220 pM. Moreover, the EC50 of GLP-1 for cAMP production (LANCE TR-FRET, 30 min stimulation) in CHO cells expressing the receptor; series with the single site mutants in experiment [5] worked out at 410 pM.
